# Laboratory results: the supplement of paper PMC7877785
# ± gives the uncertainty stated by the source.
# Experiment: self-splicing fitness, log relative to wild type (ln ratio); higher = more splicing; Tetrahymena group I intron in knt gene, E. coli kanamycin selection, DiMSum; sequences stand for … in CUCUCU…GGAGGGAAAAGUUAUCAGGCAUGCACCUGGUAGCUAGUCUUUAAACCAAUAGAUUGCAUCGGUUUAAAAGGCAAGACCGUCAAAUUGCGGGAAAGGGGUCAACAGCCGUUCAGUACCAAGUCUCAGGGGAAACUUUGAGAUGGCCUUGCAAAGGGUAUGGUAAUAAGCUGACGGACAUGGUCCUAACCACGCAGCCAAGUCCUAAGUCAACAGAUCUUCUGUUGAUAUGGAUGCAGUUCACAGACUAAAUGUCGGUCGGGGAAGAUGUAUUCUUCUCAUAAGAUAUAGUCGGACCUCUCCUUAAUGGGAGCUAGCGGAUGAAGUGAUGCAACACUGGAGCCGCUGGGAACUAAUUUGUAUGCGAAAGUAUAUUGAUUAGUUUUGGAGUACUCGUGGUCG
# How it was run: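 Pooled colonies went to amplicon sequencing on an Illumina HiSeq 2500 after six replicate transformations. The plates were LB agar with 100 μg/mL carbenicillin, 50 μM IPTG and 0.2% rhamnose, with or without 25 μg/mL kanamycin, incubated overnight at 37°C or 30°C. The E. coli BL21(DE3) library had all eight P1ex-region intron nucleotides randomised, the intron placed in the knt kanamycin-resistance gene on pET-22b(+). DiMSum fitness is the error-weighted combination of replicate fold changes, kanamycin against none, normalised to wild type.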
Sequence,self-splicing fitness (ln) (30 °C),self-splicing fitness (ln) (37 °C)
CCCUAGCAAUAUUACGCGUU,-3.65 ± 0.19,-2.72 ± 0.17
AAAGAGCAAUAUUACGUCUU,-2.22 ± 0.091,-1.41 ± 0.1
GAACAGCAAUAUUACGUCCA,-0.934 ± 0.089,-0.369 ± 0.1
GAUAAGCAAUAUUACGGGAU,-2.39 ± 0.18,-1.89 ± 0.19
AUCCAGCAAUAUUACGGGGA,-1.4 ± 0.11,-1.71 ± 0.14
GCCAAGCAAUAUUACGACAC,-0.962 ± 0.06,-0.0161 ± 0.08
AUGGAGCAAUAUUACGUGAC,-1.88 ± 0.22,-2.11 ± 0.28
ACAAAGCAAUAUUACGCCGA,-2.13 ± 0.15,-0.465 ± 0.13
UAACAGCAAUAUUACGUCUG,-0.467 ± 0.059,0.248 ± 0.077
ACGUAGCAAUAUUACGACUA,-0.558 ± 0.15,0.529 ± 0.18
UGAGAGCAAUAUUACGAACG,-1.02 ± 0.18,-1.43 ± 0.33
UUGUAGCAAUAUUACGUCGG,-1.21 ± 0.094,-0.478 ± 0.093
GGGUAGCAAUAUUACGGGAA,-3.91 ± 0.42,-1.86 ± 0.27
UAGCAGCAAUAUUACGGGUU,-3.82 ± 0.21,-1.86 ± 0.16
GUCUAGCAAUAUUACGUACG,-1.29 ± 0.12,-0.709 ± 0.12
GGGCAGCAAUAUUACGGCGU,-1.16 ± 0.12,-0.571 ± 0.12
GAUAAGCAAUAUUACGAAAG,-2.76 ± 0.18,-1.66 ± 0.21
CGCUAGCAAUAUUACGCAGA,-3.28 ± 0.45,-2.38 ± 0.36
CGAGAGCAAUAUUACGCAUU,-2.84 ± 0.24,-2.33 ± 0.21
CUUUAGCAAUAUUACGGCCG,-0.432 ± 0.19,-0.348 ± 0.29
UUCUAGCAAUAUUACGGACU,-1.6 ± 0.17,-1.16 ± 0.19
AACGAGCAAUAUUACGACUA,-1.81 ± 0.21,-0.213 ± 0.18
CUCCAGCAAUAUUACGCCCG,-2.56 ± 0.17,-0.904 ± 0.19
UUGGAGCAAUAUUACGCAGA,-2.13 ± 0.33,-1.13 ± 0.16
ACCAAGCAAUAUUACGCGGA,-1.11 ± 0.068,-0.537 ± 0.077

Sequence,self-splicing fitness (ln) (30 °C),self-splicing fitness (ln) (37 °C)
UAACAGCAAUAUUACGUACU,-1.07 ± 0.063,-0.454 ± 0.068
AAAGAGCAAUAUUACGUAAG,-3.48 ± 0.18,-2.57 ± 0.22
CCAUAGCAAUAUUACGAGGG,-3.56 ± 0.15,-2.25 ± 0.19
CCACAGCAAUAUUACGUCGA,-2.93 ± 0.11,-1.47 ± 0.099
AACAAGCAAUAUUACGACCU,0.219 ± 0.086,0.125 ± 0.1
GGCGAGCAAUAUUACGGUUU,-1.06 ± 0.076,0.0414 ± 0.11
UCCCAGCAAUAUUACGCAGG,-3.88 ± 0.29,-3.54 ± 0.26
GUCCAGCAAUAUUACGGAAC,-1.88 ± 0.12,-0.802 ± 0.11
AAAUAGCAAUAUUACGGGUG,-1.49 ± 0.11,-1.65 ± 0.14
UUUUAGCAAUAUUACGUUUA,-1.94 ± 0.22,-1.05 ± 0.16
CAACAGCAAUAUUACGGUGA,-1.58 ± 0.071,-0.727 ± 0.084
ACGAAGCAAUAUUACGAUUG,-2.46 ± 0.14,-0.909 ± 0.15
ACACAGCAAUAUUACGGGGA,-2.3 ± 0.077,-0.729 ± 0.067
GCGGAGCAAUAUUACGCUGG,,-2.1 ± 0.4
GACCAGCAAUAUUACGAGAG,-3.61 ± 0.2,-1.51 ± 0.13
AUAAAGCAAUAUUACGUAAC,-1.92 ± 0.13,-0.901 ± 0.17
UGGGAGCAAUAUUACGGGUA,-2.68 ± 0.32,-2.33 ± 0.37
GUUAAGCAAUAUUACGGGCA,-0.851 ± 0.15,-1.14 ± 0.14
GUUUAGCAAUAUUACGACUU,-0.551 ± 0.11,0.304 ± 0.14
GAAUAGCAAUAUUACGGAUG,-2.29 ± 0.099,-2.01 ± 0.12
CGUAAGCAAUAUUACGAAGG,-1.78 ± 0.12,-1.16 ± 0.2
AACAAGCAAUAUUACGGAUU,-1.38 ± 0.071,-0.641 ± 0.077
CGUGAGCAAUAUUACGCCGA,,-1.96 ± 0.41
AUGCAGCAAUAUUACGCUCC,-2.02 ± 0.29,0.0573 ± 0.36
GUACAGCAAUAUUACGUACA,-3 ± 0.15,-1.63 ± 0.098

Sequence,self-splicing fitness (ln) (30 °C),self-splicing fitness (ln) (37 °C)
AAGGAGCAAUAUUACGAUAC,-3.49 ± 0.39,-3.25 ± 0.37
GGGUAGCAAUAUUACGGGUU,-2.7 ± 0.15,-1.27 ± 0.14
UCCUAGCAAUAUUACGGACC,-2.64 ± 0.27,
GGUAAGCAAUAUUACGGGGG,-3.98 ± 0.46,-3.13 ± 0.2
UGUAAGCAAUAUUACGGAAU,,-2.49 ± 0.26
AUAUAGCAAUAUUACGAAAC,-2.85 ± 0.29,-2.03 ± 0.34
UUUAAGCAAUAUUACGGUCG,-0.794 ± 0.067,-0.269 ± 0.089
GAAAAGCAAUAUUACGACAC,-0.467 ± 0.14,-0.346 ± 0.17
ACCCAGCAAUAUUACGGCUC,-1.46 ± 0.058,-0.423 ± 0.073
CCUCAGCAAUAUUACGCUCU,-4.29 ± 0.43,
UAUAAGCAAUAUUACGGAUC,-2.57 ± 0.15,-1.58 ± 0.18
UGAAAGCAAUAUUACGAGUG,-0.522 ± 0.069,0.0623 ± 0.11
ACAGAGCAAUAUUACGAAGU,-2.65 ± 0.14,-2.58 ± 0.29
ACACAGCAAUAUUACGGAAU,-2.58 ± 0.084,-2.31 ± 0.15
UUCUAGCAAUAUUACGCCUG,-1.79 ± 0.4,-1.6 ± 0.49
GUGCAGCAAUAUUACGAGUA,-2.62 ± 0.34,-1.8 ± 0.21
GUCCAGCAAUAUUACGCGCC,-1.29 ± 0.11,-0.848 ± 0.14
UGCCAGCAAUAUUACGUAGU,-3.91 ± 0.21,-1.87 ± 0.13
ACCAAGCAAUAUUACGGGGU,-3.66 ± 0.14,-3.5 ± 0.19
GUAAAGCAAUAUUACGAGGC,-2.91 ± 0.18,-2.44 ± 0.24
UAUAAGCAAUAUUACGCAAU,-2.11 ± 0.13,-2.1 ± 0.15
AAGCAGCAAUAUUACGGAAC,-3.6 ± 0.3,
UUAAAGCAAUAUUACGUUUA,-0.747 ± 0.068,-0.409 ± 0.09
UGGAAGCAAUAUUACGAUUG,-1.76 ± 0.12,-0.362 ± 0.12
CAUGAGCAAUAUUACGAUCA,-2.99 ± 0.15,-2.24 ± 0.16

Sequence,self-splicing fitness (ln) (30 °C),self-splicing fitness (ln) (37 °C)
CUCAAGCAAUAUUACGAUCG,-1.26 ± 0.1,-0.0967 ± 0.13
UCAGAGCAAUAUUACGUAUU,-3.31 ± 0.2,-3.08 ± 0.29
CCAAAGCAAUAUUACGGUUA,-2.46 ± 0.12,-2.48 ± 0.14
UUCUAGCAAUAUUACGCGAG,-2.97 ± 0.28,-1.45 ± 0.21
CAUCAGCAAUAUUACGCAAU,-4.01 ± 0.24,-3.15 ± 0.17
GCGUAGCAAUAUUACGGUCA,-0.597 ± 0.081,-0.142 ± 0.083
UACAAGCAAUAUUACGGUAA,-2.12 ± 0.1,-1.15 ± 0.1
UGCGAGCAAUAUUACGGUGC,,-0.943 ± 0.2
AAGUAGCAAUAUUACGCGCC,-0.381 ± 0.2,-0.0421 ± 0.23
AAGUAGCAAUAUUACGUGCU,-1.29 ± 0.08,-0.982 ± 0.1
AUAGAGCAAUAUUACGUCGA,-2.82 ± 0.19,-1.04 ± 0.17
GCGCAGCAAUAUUACGGAAA,-1.97 ± 0.23,-0.698 ± 0.2
CCUAAGCAAUAUUACGAGUC,-3.77 ± 0.22,
GGUCAGCAAUAUUACGCCAG,-3.3 ± 0.47,-3.3 ± 0.4
CUCGAGCAAUAUUACGAGCC,,-1.68 ± 0.2
UACCAGCAAUAUUACGCCAA,-2.05 ± 0.12,-0.589 ± 0.099
GGCGAGCAAUAUUACGGAAG,-4.21 ± 0.3,-1.04 ± 0.2
GCCCAGCAAUAUUACGCGUU,0.0719 ± 0.046,0.222 ± 0.065
GAACAGCAAUAUUACGCUUU,-2.71 ± 0.14,-1.93 ± 0.15
UCGUAGCAAUAUUACGGUUC,-3.12 ± 0.3,-2.07 ± 0.27
UAGCAGCAAUAUUACGCCUU,-0.751 ± 0.078,-0.21 ± 0.13
UAAUAGCAAUAUUACGCCGU,-2.83 ± 0.38,-1.97 ± 0.43
UCGUAGCAAUAUUACGAUGU,-3.41 ± 0.24,-2.24 ± 0.2
